The supplement of paper PMC9112550, “Optimization of the antimicrobial peptide Bac7 by deep mutational scanning” (BMC Biology, 2022)

These sequences were tested on Escherichia coli TOP10 (assay: shrunken log2 fold change of peptide-encoding DNA abundance (4.5 h post-induction vs induction); higher = less antimicrobial activity (less host growth inhibition)). Conditions: time post-induction: 4.5 h; library: site-saturation at positions 5, 18, 19, 20.
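Also: peptides expressed intracellularly from a pBAD plasmid library in pooled LB shake-flask culture, induced with 0.3% L-arabinose, DNA abundance read by NGS, three biological replicates, DESeq2 with apeglm shrinkage.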

Sequence	shrunken log2 fold change
RRIRWRPPRLPRPRPRPQNNPRP	-0.622
RRIRNRPPRLPRPRPRPTQWPRP	0.425
RRIRPRPPRLPRPRPRPVNDPRP	-0.106
RRIRQRPPRLPRPRPRPQNLPRP	-0.0271
RRIRIRPPRLPRPRPRPNDLPRP	-0.16
RRIRRRPPRLPRPRPRPYGKPRP	-0.813
RRIRFRPPRLPRPRPRPMCAPRP	0.253
RRIRMRPPRLPRPRPRPHMLPRP	-0.245
RRIRERPPRLPRPRPRPFNIPRP	-0.0814
RRIRYRPPRLPRPRPRPVITPRP	-0.241
RRIRFRPPRLPRPRPRPSEQPRP	-0.217
RRIRARPPRLPRPRPRPRLHPRP	0.376
RRIRGRPPRLPRPRPRPAHQPRP	0.65
RRIRSRPPRLPRPRPRPWAPPRP	0.0324
RRIRMRPPRLPRPRPRPQPLPRP	0.224
RRIRDRPPRLPRPRPRPKFKPRP	-0.0689
RRIRERPPRLPRPRPRPCQPPRP	0.0208
RRIRARPPRLPRPRPRPPQLPRP	0.753
RRIRRRPPRLPRPRPRPMYFPRP	-0.21
RRIRWRPPRLPRPRPRPNQMPRP	-0.0159
RRIRHRPPRLPRPRPRPRFDPRP	-0.163
RRIRHRPPRLPRPRPRPLPDPRP	-0.299

Sequence	shrunken log2 fold change
RRIRMRPPRLPRPRPRPRYLPRP	-0.0395
RRIRHRPPRLPRPRPRPVCVPRP	-0.216
RRIRCRPPRLPRPRPRPFRHPRP	-0.143
RRIRPRPPRLPRPRPRPNRRPRP	-0.0942
RRIRIRPPRLPRPRPRPSQPPRP	0.101
RRIRERPPRLPRPRPRPWLNPRP	-0.00136
RRIRARPPRLPRPRPRPMPTPRP	0.866
RRIRFRPPRLPRPRPRPDPTPRP	0.0215
RRIRMRPPRLPRPRPRPQWDPRP	0.232
RRIRQRPPRLPRPRPRPEFIPRP	-0.163
RRIRCRPPRLPRPRPRPSKTPRP	-0.0722
RRIRLRPPRLPRPRPRPYRRPRP	0.0203
RRIRLRPPRLPRPRPRPKACPRP	0.16
RRIRFRPPRLPRPRPRPETPPRP	0.752
RRIRDRPPRLPRPRPRPKKCPRP	0.0235
RRIRSRPPRLPRPRPRPAQFPRP	-0.114
RRIRARPPRLPRPRPRPENAPRP	0.687
RRIRPRPPRLPRPRPRPATNPRP	-0.105
RRIRERPPRLPRPRPRPNCCPRP	-0.00112
RRIRCRPPRLPRPRPRPELRPRP	0.0185
RRIRTRPPRLPRPRPRPMIAPRP	0.000989
RRIRCRPPRLPRPRPRPQSEPRP	-0.398

Sequence	shrunken log2 fold change
RRIRFRPPRLPRPRPRPWIHPRP	-0.804
RRIRRRPPRLPRPRPRPDAEPRP	1.62
RRIRHRPPRLPRPRPRPTMVPRP	-0.224
RRIRLRPPRLPRPRPRPSTSPRP	-0.0196
RRIRHRPPRLPRPRPRPCWYPRP	-0.0677
RRIRTRPPRLPRPRPRPWVPPRP	0.252
RRIRSRPPRLPRPRPRPWAFPRP	-0.072
RRIRIRPPRLPRPRPRPWTVPRP	-0.15
RRIRPRPPRLPRPRPRPFVYPRP	-0.706
RRIRDRPPRLPRPRPRPFDVPRP	0.016
RRIRRRPPRLPRPRPRPWHEPRP	0.041
RRIRCRPPRLPRPRPRPDFDPRP	-0.0217
RRIRKRPPRLPRPRPRPAREPRP	0.89
RRIRSRPPRLPRPRPRPSADPRP	0.0633
RRIRQRPPRLPRPRPRPNAHPRP	-0.18
RRIRVRPPRLPRPRPRPGDAPRP	0.0792
RRIRTRPPRLPRPRPRPKQYPRP	-0.379
RRIRKRPPRLPRPRPRPKDEPRP	0.0833
RRIRKRPPRLPRPRPRPKCSPRP	0.00677
RRIRARPPRLPRPRPRPTQVPRP	0.224
RRIRRRPPRLPRPRPRPSIGPRP	-0.0466
RRIRCRPPRLPRPRPRPQSTPRP	-0.673

Sequence	shrunken log2 fold change
RRIRVRPPRLPRPRPRPPRSPRP	0.37
RRIRSRPPRLPRPRPRPMMPPRP	-0.0787
RRIRERPPRLPRPRPRPQTTPRP	0.0104
RRIRGRPPRLPRPRPRPSFQPRP	0.198
RRIRMRPPRLPRPRPRPKTAPRP	2.56
RRIRVRPPRLPRPRPRPNMPPRP	-0.0801
RRIRPRPPRLPRPRPRPGVDPRP	0.0426
RRIRCRPPRLPRPRPRPKFEPRP	0.00386
RRIRSRPPRLPRPRPRPQIHPRP	-0.341
RRIRLRPPRLPRPRPRPKPSPRP	0.432
RRIRFRPPRLPRPRPRPKKKPRP	-0.00928
RRIRPRPPRLPRPRPRPVTMPRP	-0.297
RRIRCRPPRLPRPRPRPFDPPRP	-0.0744
RRIRWRPPRLPRPRPRPWPKPRP	0.322
RRIRNRPPRLPRPRPRPCQYPRP	-0.0135
RRIRPRPPRLPRPRPRPPHEPRP	-0.0736
RRIRCRPPRLPRPRPRPHQIPRP	-0.389
RRIRNRPPRLPRPRPRPVASPRP	-0.0843
RRIRQRPPRLPRPRPRPITLPRP	-0.418
RRIRNRPPRLPRPRPRPRCYPRP	-0.0588
RRIRYRPPRLPRPRPRPWQLPRP	-0.647
RRIRGRPPRLPRPRPRPEYFPRP	0.11

Sequence	shrunken log2 fold change
RRIRARPPRLPRPRPRPRWVPRP	0.267
RRIRERPPRLPRPRPRPQVPPRP	-0.103
RRIRYRPPRLPRPRPRPPPEPRP	0.456
RRIRTRPPRLPRPRPRPSANPRP	-0.0622
RRIRPRPPRLPRPRPRPPPFPRP	0.277
RRIRHRPPRLPRPRPRPGAGPRP	0.395
RRIRKRPPRLPRPRPRPCKHPRP	-0.11
RRIRWRPPRLPRPRPRPAGGPRP	0.379
RRIRLRPPRLPRPRPRPEYIPRP	-0.312
RRIRPRPPRLPRPRPRPWNIPRP	-0.00871
RRIRNRPPRLPRPRPRPNSTPRP	2.34
RRIRTRPPRLPRPRPRPELFPRP	0.039
RRIRHRPPRLPRPRPRPDTDPRP	-0.0683
RRIRARPPRLPRPRPRPKLTPRP	0.167
RRIRARPPRLPRPRPRPHVNPRP	-0.467
RRIRMRPPRLPRPRPRPQCGPRP	0.096
RRIRNRPPRLPRPRPRPDVTPRP	0.216
RRIRIRPPRLPRPRPRPPVSPRP	-0.116
RRIRYRPPRLPRPRPRPWYQPRP	-3.18
RRIRWRPPRLPRPRPRPMSDPRP	0.0237
RRIRVRPPRLPRPRPRPVSTPRP	-0.145
